{"source": "patent US20210139574A1", "about": "(UCB, published 2021)", "binders": {"B1": {"name": "AB1 having a murinised VL of SEQ ID NO: 9 and a murinised VH of SEQ ID NO.: 10 (antibody, V domains shown)", "VH": "QVQLKESGPGLVAPSQSLSITCTVSGIDLSTWRMNWVRQPPGKGLEWIGIIGTGGRTYYANWAKGRFSISKDSTQVFLKMNSLQTEDTATYFCARLGANNNGYPLDLWGAGTTVTVSS", "VL": "DVVMTQSPASLAVSLGQRATISCQASQSVSSYLAWYQQKPGQPPKLLIYAASYLASGVPSRFKGSGSGTEFTLNIHPVEEEDAATYYCQQGYTRTDIDNTFGGGTKLEIK"}, "B2": {"name": "mFab from murinised mAB1 antibody with light chain of SEQ ID No.: 58 and heavy chain of SEQ ID No.: 59 (Fab, V domains shown)", "VH": "B1 VH", "VL": "DVVMTQSPASLAVSLGQRATISCQASQSVSSYLAWYQQKPGQPPKLLIYAASYLASGVPSRFKGSGSGTEFTLNIHPVEEEDAATYYCQQGYTRTDIDNTFGGGTKLEIKR", "notes": "Fab made by ficin cleavage of the whole antibody; also called mFab from mAB1"}, "B3": {"name": "Tau-binding antibody having the light chain of SEQ ID No.: 17 and the heavy chain of SEQ ID No.:23 (antibody, human IgG1, kappa)", "light": "DIQMTQSPSSLSASVGDRVTITCQASQSVSSYLAWYQQKPGKAPKLLIYAASYLASGVPSRFSGSGSGTDFTLTISSLQPEDFATYYCQQGYTRTDIDNTFGGGTKVEIKRTVAAPSVFIFPPSDEQLKSGTASVVCLLNNFYPREAKVQWKVDNALQSGNSQESVTEQDSKDSTYSLSSTLTLSKADYEKHKVYACEVTHQGLSSPVTKSFNRGEC", "heavy": "not shown"}, "B4": {"name": "Tau-binding antibody having the light chain of SEQ ID No.: 17 and the heavy chain of SEQ ID No.:21 (antibody, human IgG4 S228P, kappa)", "light": "B3 light", "heavy": "not shown"}, "B5": {"name": "Tau-binding antibody having the light chain of SEQ ID No.: 17 and the heavy chain of SEQ ID No.:24 (antibody, human IgG1, kappa)", "light": "B3 light", "heavy": "not shown"}, "B6": {"name": "Tau-binding humanised antibody having the light chain of SEQ ID NO: 17 and the heavy chain of SEQ ID NO: 20 (antibody, human IgG4 S228P, kappa)", "light": "B3 light", "heavy": "not shown"}}, "key": {"[1]": {"target": "B6", "assay": "SPR competition: no significant inhibition of L17H20 binding to immobilised HEK Tau isoform-2", "description": "Recombinant Tau isoform-2 monomer (amino acids 1-441), expressed and purified from HEK cells, and insoluble Tau protein in the form of a paired helical filament preparation isolated from Alzheimer's disease patient brain (AD-PHF), were amine immobilized onto the CM5 chip using a Biacore 3000 instrument and HBS-EP (GE Healthcare) as running buffer. The former were amine coupled to flow cells 2 and 4 respectively following activation of the carboxymethyl dextran surface these and reference flow cells by injection of 70 μl of a fresh mixture of 50 mM N-hydroxysuccimide and 200 mM 1-ethyl-3-(3-dimethylaminopropyl)-carbodiimide at a flow rate of 10 μl/min. Immobilization of tau monomer was achieved by injecting 160 μl at 50 μg/ml in 10 mM acetate pH 5.0 buffer, whereas AD-PHF was immobilized by injecting twenty 160 μl aliquots at 2 μg/ml in 10 mM acetic acid (pH3.0). […]\nEpitope mapping was carried out by pre-incubating solutions of a Tau-binding humanised antibody having the light chain of SEQ ID NO: 17 and the heavy chain of SEQ ID NO: 20 (L17H20) and test peptide or buffer controls, prepared in running buffer at 200 nM and 5000 nM respectively. […] Response units of antibody binding were recorded at report points taken 15 sec after the end of each injection as the difference between values of test and reference flow cells. […]"}, "[2]": {"target": "T1, Tau seeds: sonicated human insoluble Tau from patients with Alzheimer's disease (AD-PHF, fraction 8) (human, UniProt P10636-8 2-441, limits assumed)", "T1 sequence (P10636 other isoform, or with tags, fused parts or gaps limits assumed)": "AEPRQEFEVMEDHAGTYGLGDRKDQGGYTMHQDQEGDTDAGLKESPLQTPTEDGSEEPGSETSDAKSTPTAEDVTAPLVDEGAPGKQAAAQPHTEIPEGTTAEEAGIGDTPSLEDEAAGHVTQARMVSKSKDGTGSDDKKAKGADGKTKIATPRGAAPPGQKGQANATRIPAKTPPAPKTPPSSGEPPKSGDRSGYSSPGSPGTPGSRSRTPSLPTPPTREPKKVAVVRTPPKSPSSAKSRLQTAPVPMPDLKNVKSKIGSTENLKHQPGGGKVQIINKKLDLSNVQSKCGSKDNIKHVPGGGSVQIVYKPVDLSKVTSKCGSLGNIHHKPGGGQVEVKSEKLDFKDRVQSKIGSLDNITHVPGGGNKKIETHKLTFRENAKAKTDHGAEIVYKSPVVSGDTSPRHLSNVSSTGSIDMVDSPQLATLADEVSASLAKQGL", "assay": "cell-based or functional assay"}, "[3]": {"target": "Tau seeds: sonicated human insoluble Tau from patients with frontotemporal dementia (FTD-PHF) (human, UniProt P10636-8 2-441, limits assumed)", "sequence (P10636 other isoform, or with tags, fused parts or gaps limits assumed)": "as above", "assay": "cell-based or functional assay"}, "[4]": {"target": "T2, Tau seeds: brain fraction from transgenic mice expressing human Tau P301L (human, UniProt P10636-8 1-441, limits assumed)", "T2 sequence (P10636 other isoform, or with tags, fused parts or gaps P301L P301L limits assumed)": "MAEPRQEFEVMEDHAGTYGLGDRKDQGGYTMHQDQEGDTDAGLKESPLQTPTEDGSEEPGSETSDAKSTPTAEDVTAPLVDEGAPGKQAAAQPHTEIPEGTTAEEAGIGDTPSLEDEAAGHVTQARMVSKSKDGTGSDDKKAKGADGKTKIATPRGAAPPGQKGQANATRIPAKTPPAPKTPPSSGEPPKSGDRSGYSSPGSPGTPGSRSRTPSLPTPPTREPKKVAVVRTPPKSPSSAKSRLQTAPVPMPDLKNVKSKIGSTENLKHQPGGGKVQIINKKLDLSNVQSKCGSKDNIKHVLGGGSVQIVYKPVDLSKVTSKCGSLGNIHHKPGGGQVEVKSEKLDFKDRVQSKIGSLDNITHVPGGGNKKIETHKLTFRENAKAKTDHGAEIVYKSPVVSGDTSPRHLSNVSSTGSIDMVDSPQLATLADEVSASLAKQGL", "assay": "cell-based or functional assay"}, "[5]": {"target": "T3, Tau seeds: sonicated human insoluble Tau from patients with progressive supranuclear palsy (PSP-PHF, fraction … (human, UniProt P10636-8 2-441, limits assumed))", "T3 sequence (P10636 other isoform, or with tags, fused parts or gaps limits assumed)": "as the sequence (P10636 other isoform, or with tags, fused parts or gaps limits assumed) above", "assay": "cell-based or functional assay"}, "[6]": {"target": "T1, Tau seeds: sonicated human insoluble …", "assay": "cell-based or functional assay", "remark": "listed apart in the source"}, "[7]": {"target": "T2, Tau seeds: brain fraction from …", "assay": "cell-based or functional assay", "remark": "listed apart in the source"}, "[8]": {"target": "T3, Tau seeds: sonicated human insoluble …", "assay": "cell-based or functional assay", "remark": "listed apart in the source"}, "[9]": {"target": "T4, HEK-derived Tau isoform-2 monomers (amino acids 1-441) (human, UniProt P10636 1-758)", "T4 construct": "Expressed in Expi293F cells, N-terminal 10His-TEV tag removed with TEV protease; phosphorylation state not described; also called HEK iso-2; HEK Tau", "T4 sequence (P10636 other isoform, or with tags, fused parts or gaps)": "as the sequence (P10636 other isoform, or with tags, fused parts or gaps P301L P301L limits assumed) above, with L301P counted along it", "assay": "SPR (Biacore T200), Tau amine-immobilised on CM5, mFab as analyte", "experimental": "Selected monoclonal Fab fragments (mFab) were prepared from murinised mAB 1 antibody with light chain of SEQ ID No.: 58 and heavy chain of SEQ ID No.: 59 using the Pierce Ficin cleavage kit (Cat. No. 44980, Thermo Scientific) according to the protocol of the manufacturer. Absorption at 280 nm was used to determine the concentration of the Fab stock solutions for the Biacore analysis. An insoluble Tau protein preparation from Alzheimer's disease patients (AD-PHF, fraction 11), the HEK-derived Tau isoform-2 monomers (amino acids 1-441), and the isoform-2 monomers expressed in E. coli were amine immobilized onto the CM5 chip, and binding of anti-Tau mFabs was measured with the Biacore T200 instrument. The buffer HBS-EP from GE Healthcare was used for immobilizations apart from the AD-PHF for which 10 mM acetic acid (pH3.0) was used. The HBS-EP+ buffer was supplemented with 300 mM NaCl and 1.25% CM-Dextran (Sigma) and used as the assay buffer. While flow cell (Fc) 1 was used as a reference, the following RU values were obtained for Fc2-4: 44 RU with 5 ug/ml E. coli Tau, 56 RU with 5 ug/m HEK Tau, and 500 RU with a 1:20 diluted solution of the AD-PHF material. Two 60 s cycles of 10 mM Glycine (pH1.7) were used for regeneration. Flow rates of 10 ul/min were used for immobilization and regeneration while a 30 ul/min flow rate was used for analyte binding. […]"}, "[10]": {"target": "T5, insoluble Tau protein preparation from Alzheimer's disease patients (AD-PHF), immobilised for Biacore (human, UniProt P10636-8 2-441, limits assumed)", "T5 construct": "also called AD-PHF, fraction 11; Tau PHF fibrils from Alzheimer's disease patients", "T5 sequence (P10636 other isoform, or with tags, fused parts or gaps limits assumed)": "as the sequence (P10636 other isoform, or with tags, fused parts or gaps limits assumed) above", "assay": "SPR (Biacore T200), AD-PHF (fraction 11) amine-immobilised on CM5, mFab as analyte", "experimental": "Selected monoclonal Fab fragments (mFab) were prepared from murinised mAB 1 antibody with light chain of SEQ ID No.: 58 and heavy chain of SEQ ID No.: 59 using the Pierce Ficin cleavage kit (Cat. No. 44980, Thermo Scientific) according to the protocol of the manufacturer. Absorption at 280 nm was used to determine the concentration of the Fab stock solutions for the Biacore analysis. An insoluble Tau protein preparation from Alzheimer's disease patients (AD-PHF, fraction 11), the HEK-derived Tau isoform-2 monomers (amino acids 1-441), and the isoform-2 monomers expressed in E. coli were amine immobilized onto the CM5 chip, and binding of anti-Tau mFabs was measured with the Biacore T200 instrument. The buffer HBS-EP from GE Healthcare was used for immobilizations apart from the AD-PHF for which 10 mM acetic acid (pH3.0) was used. The HBS-EP+ buffer was supplemented with 300 mM NaCl and 1.25% CM-Dextran (Sigma) and used as the assay buffer. While flow cell (Fc) 1 was used as a reference, the following RU values were obtained for Fc2-4: 44 RU with 5 ug/ml E. coli Tau, 56 RU with 5 ug/m HEK Tau, and 500 RU with a 1:20 diluted solution of the AD-PHF material. Two 60 s cycles of 10 mM Glycine (pH1.7) were used for regeneration. Flow rates of 10 ul/min were used for immobilization and regeneration while a 30 ul/min flow rate was used for analyte binding. For AD-PHF, multiple manual injections were applied to reach 500 RU, including EDC/NHS and EtoA capping. Five start-up cycles and 12 cycles per mFab sample or buffer control were applied, using 90 uls analyte injections for either 180 s or 300 s for dissociation. 11 1:3 dilutions of a 600 nM solution plus buffer were used for each mFab."}}, "note": "Square brackets hold non-standard residues; d marks the D form. Ends that are not written are not given here. Tyr(3-NO2) = N[C@@H](Cc1ccc(O)c([N+](=O)[O-])c1)C(=O)O; pS = N[C@@H](COP(=O)(O)O)C(=O)O"}
{"binder": "[Tyr(3-NO2)][pS][pS]PG", "note": "[T197H test peptide (nY pS pS P G)]", "values": [{"measurement": "binding result", "setting": "[1]", "value": "no binding (tested: 5000 nM peptide)"}]}
{"binder": "B1", "values": [{"measurement": "IC50, cellular Tau aggregation assay", "setting": "[2]", "value": 10, "unit": "nM"}, {"measurement": "Imax (maximal efficacy at 300 nM), cellular Tau aggregation assay", "setting": "[2]", "value": 79, "unit": "%"}, {"measurement": "IC50, cellular Tau aggregation assay", "setting": "[3]", "value": 1, "unit": "nM"}, {"measurement": "Imax (maximal efficacy at 300 nM), cellular Tau aggregation assay", "setting": "[3]", "value": 81, "unit": "%"}, {"measurement": "IC50, cellular Tau aggregation assay", "setting": "[4]", "value": 9, "unit": "nM"}, {"measurement": "Imax (maximal efficacy at 300 nM), cellular Tau aggregation assay", "setting": "[4]", "value": 81, "unit": "%"}, {"measurement": "Imax (maximal efficacy at 300 nM), cellular Tau aggregation assay", "setting": "[5]", "value": 54, "unit": "%"}, {"measurement": "IC50, cellular Tau aggregation assay (n=3)", "setting": "[6]", "value": 27, "unit": "nM"}, {"measurement": "IC50, cellular Tau aggregation assay (n=2)", "setting": "[7]", "value": 15, "unit": "nM"}, {"measurement": "IC50, cellular Tau aggregation assay (n=3)", "setting": "[8]", "value": 70, "unit": "nM"}]}
{"binder": "B2", "values": [{"measurement": "binding result", "setting": "[9]", "value": "no binding (tested: 600 nM)"}, {"measurement": "Kd", "setting": "[10]", "value": 590, "unit": "nM"}, {"measurement": "koff", "setting": "[10]", "value": 0.047, "unit": "s⁻¹"}, {"measurement": "kon", "setting": "[10]", "value": 79600, "unit": "M⁻¹ s⁻¹"}]}
{"binder": "B3", "values": [{"measurement": "Imax (maximal efficacy at 300 nM), cellular Tau aggregation assay", "setting": "[5]", "value": 49, "unit": "%"}]}
{"binder": "B4", "values": [{"measurement": "IC50, cellular Tau aggregation assay", "setting": "[5]", "value": 66, "unit": "nM"}, {"measurement": "Imax (maximal efficacy at 300 nM), cellular Tau aggregation assay", "setting": "[5]", "value": 47, "unit": "%"}]}
{"binder": "B5", "values": [{"measurement": "Imax (maximal efficacy at 300 nM), cellular Tau aggregation assay", "setting": "[5]", "value": 47, "unit": "%"}]}
{"binder": "B6", "values": [{"measurement": "IC50, cellular Tau aggregation assay", "setting": "[2]", "value": 2, "unit": "nM"}, {"measurement": "Imax (maximal efficacy at 300 nM), cellular Tau aggregation assay", "setting": "[2]", "value": 85, "unit": "%"}, {"measurement": "IC50, cellular Tau aggregation assay", "setting": "[3]", "value": 1, "unit": "nM"}, {"measurement": "Imax (maximal efficacy at 300 nM), cellular Tau aggregation assay", "setting": "[3]", "value": 79, "unit": "%"}, {"measurement": "IC50, cellular Tau aggregation assay", "setting": "[5]", "value": 42, "unit": "nM"}, {"measurement": "Imax (maximal efficacy at 300 nM), cellular Tau aggregation assay", "setting": "[5]", "value": 65, "unit": "%"}]}
